Results on one molecule are retold here after PMC12945441 (Science (New York, N.Y.), 2022).

For the test, the target named is prefusion SARS-CoV-2 Omicron BA.1 S ectodomain trimer (SARS-CoV-2 Omicron BA.1 (B.1.1.529), strain). Briefly: cryo-EM structure. Particulars: both partners purified.

B1: S2X324 Fab fragment (Fab, V domains shown)
VH: QITLKESGPTLVKPTQTLTLTCTFSGFSVTTSGVGVGWIRQPPGKALEYLALIYWDDDKRYSTSLKSRLTITKDTSKNQVVLTMTNMDPVDTATYYCARHTIPSIFDYWGQGILVTVSS
VL: QPVLTQPASVSGSPGQSITISCTATSSDVGNYNYVSWYQHHPGKAPKLMIYEVSNRPSGVSNRFSGSKSGNTASLTISGLQAEDEADYYCSSYTSSSLLFGGGTKLTVL
A word on the stoichiometry N: it is a count of units in the complex or per binding partner. For the molecule B1, the “stoichiometry N” value came out at 3 Fabs per S trimer.
